Each substance was assayed against ACE2-Fc fusion protein (extracellular domain of human ACE2 and the Fc region of human IgG1) (human) (UniProt Q9BYF1) (assay: ELISA).
For “recombinant S1-subunit or RBD of SARS-CoV-2 variant B.1.1.7 (domain or fragment)”, the EC50 was 0.8 nM. “recombinant S1-subunit or RBD of SARS-CoV-2 variant B.1.351 (domain or fragment)” gave an EC50 of 6.9 nM. In the case of “recombinant S1-subunit or RBD of SARS-CoV-2 variant B.1.617.1 (domain or fragment)”, the EC50 is reported as 51.3 nM. “recombinant S1-subunit or RBD of SARS-CoV-2 variant P.1 (domain or fragment)” showed an EC50 of 14.9 nM. In the case of “recombinant S1-subunit or RBD of SARS-CoV-2-D614G (domain or fragment)”, the EC50 is reported as 2.6 nM.

From PMC8385704
